Assay results from publication PMC9131872.

Target: African swine fever virus (ASFV) decapping enzyme g5R protein, recombinant wild type (residues 1 to 250) (African swine fever virus (ASFV)) (UniProt P32092)
Test: cross-linking

African swine fever virus (ASFV) decapping enzyme g5R protein, recombinant wild type (residues 1 to 250) (from UniProt P32092 1-250)
stoichiometry N: 2
